This test deals with T1, wild-type HMPV F protein (soluble, secreted, with C-terminal GCNt trimerization domain) (human metapneumovirus, B2 strain).
T1 construct: fusion (F) glycoprotein of human metapneumovirus, B2 strain; soluble secreted form, GCNt joined in-frame with the heptad repeat of the C-terminal HRB; Preparations are mixtures of pre- and post-fusion forms; heating to 50°C for 30 min converts them to the post-fusion form (written as assays of their own); The trimer may rest in part on the GCNt domain; also called wt HMPV F; MPV F-GCNt; not …
Put plainly: SPR; BiOptix 404pi; F proteins captured on NiHC1000m chip through their C-terminal His tag to 120 RU; Fab injected at 300 to 0.14 nM, 100 ul/min; 10 mM HEPES pH 7.2, 150 mM NaCl, 0.005% Tween 20, 50 uM EDTA; simple Langmuir model. The settings on record: both partners purified.

B1: motavizumab Fab (affinity-matured variant of palivizumab, anti-RSV F site II/A) (Fab, V domains shown)
VH: QVTLRESGPALVKPTQTLTLTCTFSGFSLSTAGMSVGWIRQPPGKALEWLADIWWDDKKHYNPSLKDRLTISKDTSKNQVVLKVTNMDPADTATYYCARDMIFNFYFDVWGQGTTVTVSS
VL: DIQMTQSPSTLSASVGDRVTITCSASSRVGYMHWYQQKPGKAPKLLIYDTSKLASGVPSRFSGSGSGTEFTLTISSLQPDDFATYYCFQGSGYPFTFGGGTKVEIK
notes: heavy chain of the Fab in the motavizumab:RSV peptide complex PDB 3IXT; light chain of the Fab in the motavizumab:RSV peptide complex PDB 3IXT; Variable genes cloned into pEE6.4 (heavy) and pEE12.4 (light) vectors (Lonza); constant parts of the Fab construct are not described; source: FreeStyle 293-F cells, co-transfected (PEI), purified from supernatant (protein G column)
B1: the binding result was “no binding”.

These data come from PMC4880302, “A Chimeric Pneumovirus Fusion Protein Carrying Neutralizing Epitopes of Both MPV and RSV” (PLoS ONE, 2016).
